Laboratory results reported in US6878520 (MERCK, dated 2005).
Each block holds one binder with its values, some of them ahead of it.

Legend:
[1] = molecular target: T1, human melanocortin-3 receptor (human, UniProt P41968 1-323); experiment: inhibition of 125I-NDP-α-MSH binding to membranes of cells expressing human MC3R
T1 construct: whole, on cells; Assayed as membranes prepared from stably expressing cells; also called hMC3R; MC3R
Procedure: (§1) Binding assays were done in the same manner as described in Fong et al., 1997, Biochem. Biophys. Res. Comm. 237:629–631. Binding assays were carried out using membranes prepared from L cells or CHO cells stably expressing human MC3R, MC4R or MC5R. […] The above mixture in binding buffer (50 mM Tris, 2 mM CaCl_2, 1 mM MgCl_2, 5 mM KCl, pH 7.2) was incubated at room temperature for 2 hours, followed by filtration through GFC paper. The bound ligand was quantitated in a γ counter. IC$50$ values were calculated as previously described (Fong et al., 1996, Mol. Pharmacol. 50:1605–1611).

[2] = molecular target: T2, human melanocortin-4 receptor (human, UniProt P32245 1-332); experiment: inhibition of 125I-NDP-α-MSH binding to membranes of cells expressing human MC4R
T2 construct: whole, on cells; Assayed as membranes prepared from stably expressing cells; also called hMC4R; MC4R
Procedure: as §1

T2 sequence (P32245 whole entry): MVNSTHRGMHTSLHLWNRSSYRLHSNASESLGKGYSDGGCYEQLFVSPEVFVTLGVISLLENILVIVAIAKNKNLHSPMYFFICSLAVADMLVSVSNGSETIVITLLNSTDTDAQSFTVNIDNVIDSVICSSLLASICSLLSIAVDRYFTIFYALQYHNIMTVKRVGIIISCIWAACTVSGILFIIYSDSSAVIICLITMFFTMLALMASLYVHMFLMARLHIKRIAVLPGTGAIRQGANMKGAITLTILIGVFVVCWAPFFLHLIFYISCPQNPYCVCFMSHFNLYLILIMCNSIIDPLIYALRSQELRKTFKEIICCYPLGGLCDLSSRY
T1 sequence (P41968 whole entry): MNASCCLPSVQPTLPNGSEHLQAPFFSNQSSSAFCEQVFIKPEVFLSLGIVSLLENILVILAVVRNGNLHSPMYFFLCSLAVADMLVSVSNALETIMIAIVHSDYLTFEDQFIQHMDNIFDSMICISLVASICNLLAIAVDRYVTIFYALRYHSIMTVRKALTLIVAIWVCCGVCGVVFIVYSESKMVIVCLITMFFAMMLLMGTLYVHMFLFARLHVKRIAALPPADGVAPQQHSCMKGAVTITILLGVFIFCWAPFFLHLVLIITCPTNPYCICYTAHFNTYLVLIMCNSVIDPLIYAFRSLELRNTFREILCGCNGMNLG

- IC50 [1]: 1.9 nM
- IC50 [2]: 1.4 nM
B1: c-ART-b (ligand)
chain: AQMGLALQDREPRSSRRCVRLHESCLGQQVPCCDPCATCYCRFFNAFCYCRKLGTAMNPCSRTLVPRGSGSELGTKLGPEQKLISEEDLNSAVDHHHHHH
notes: Secreted into the culture medium of transfected COS-7 cells and used as concentrated medium; also called ART polypeptide

- IC50 [1]: 1 nM
- IC50 [2]: 0.5 nM
B2: full-length human ART protein (ligand)
chain: AQMGLAPMEGIRRPDQALLPELPGLGLRAPLKKTNAEQAEEDLLQEAQALAEVLDLQDREPRSSRRCVRLHESCLGQQVPCCDPCATCYCRFFNAFCYCRKLGTAMNPCSRTLVPRGSGSELGTKLGPEQKLISEEDLNSAVDHHHHHH
notes: also called full length ART; full-length ART protein
